Consider nine molecules from patent US11267868 (dated 2022).

What all share (assay): SPR
Background: In SPR one partner is held on a chip, and binding of the other changes the refractive index at the surface.

The target in one experiment is T1, FcgRIIaH (human, UniProt P12318).
T1 chain: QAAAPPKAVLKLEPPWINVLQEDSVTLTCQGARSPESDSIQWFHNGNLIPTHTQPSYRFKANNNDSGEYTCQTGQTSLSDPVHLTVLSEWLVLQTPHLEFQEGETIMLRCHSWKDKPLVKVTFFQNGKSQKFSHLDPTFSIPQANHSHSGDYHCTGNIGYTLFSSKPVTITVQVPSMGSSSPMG

For a further experiment, the target named is T2, FcgRIIb (human, UniProt P31994).
T2 chain: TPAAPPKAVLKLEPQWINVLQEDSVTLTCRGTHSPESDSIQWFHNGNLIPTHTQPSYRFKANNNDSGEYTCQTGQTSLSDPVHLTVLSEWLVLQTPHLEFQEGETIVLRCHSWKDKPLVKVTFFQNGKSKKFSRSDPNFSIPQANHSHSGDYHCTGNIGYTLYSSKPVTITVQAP

Another experiment has as its target T3, FcgRIa (human, UniProt P12314).
T3 chain: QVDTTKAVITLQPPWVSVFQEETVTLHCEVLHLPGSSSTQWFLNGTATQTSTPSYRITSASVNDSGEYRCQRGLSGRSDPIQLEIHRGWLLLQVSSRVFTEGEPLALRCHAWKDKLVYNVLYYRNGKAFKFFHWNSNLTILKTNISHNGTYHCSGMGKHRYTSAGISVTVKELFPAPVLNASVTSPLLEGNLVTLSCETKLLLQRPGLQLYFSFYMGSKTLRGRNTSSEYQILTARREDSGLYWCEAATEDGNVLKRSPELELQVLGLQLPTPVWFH

A further experiment concerns the target T4, FcgRIIaR (human, UniProt P12318).
T4 chain: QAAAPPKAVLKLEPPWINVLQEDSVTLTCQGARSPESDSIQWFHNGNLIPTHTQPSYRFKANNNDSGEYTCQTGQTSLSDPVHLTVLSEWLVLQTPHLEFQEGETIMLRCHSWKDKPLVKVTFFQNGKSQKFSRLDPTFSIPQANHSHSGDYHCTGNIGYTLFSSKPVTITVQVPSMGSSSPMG

A further experiment addresses FcgRIIIaV (human, UniProt P08637).

Sequence of FcgRIIIaV (P08637 17-208 F176V): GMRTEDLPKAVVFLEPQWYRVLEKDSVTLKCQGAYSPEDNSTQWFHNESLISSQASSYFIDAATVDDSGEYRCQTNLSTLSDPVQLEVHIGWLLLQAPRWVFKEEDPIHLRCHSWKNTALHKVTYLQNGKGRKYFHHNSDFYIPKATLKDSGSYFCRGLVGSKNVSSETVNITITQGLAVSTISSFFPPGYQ

B1: IL6R-P659/IL6R-L (antibody)
chain 1: QVQLQESGPGLVKPSETLSLTCAVSGHSISHDHAWSWVRQPPGEGLEWIGFISYSGITNYNPSLQGRVTISRDNSKNTLYLQMNSLRAEDTAVYYCARSLARTTAMDYWGEGTLVTVSSASTKGPSVFPLAPSSKSTSGGTAALGCLVKDYFPEPVTVSWNSGALTSGVHTFPAVLQSSGLYSLSSVVTVPSSSLGTQTYICNVNHKPSNTKVDKKVEPKSCDKTHTCPPCPAPELLGQDSVMLFPPKPKDTLMISRTPEVTCVVVDVSHEDPEVKFNWYVDGVEVHNAKTKPREEQENSTYRVVSVLTVLHQDWLNGKEYKCKVSNKALPAPIEKTISKAKGQPREPQVYTLPPSRDELTKNQVSLTCLVKGFYPSDIAVEWESNGQPENNYKTTPPVLDSDGSFFLYSKLTVDKSRWQQGNVFSCSVMHEALHNHYTQKSLSLSP
chain 2: not shown
By Kd is commonly meant the equilibrium constant for the complex coming apart. Turning to B1, the Kd with FcgRIIaH was determined as 160 µM; with FcgRIIb it was 6.4 µM; in the experiment with FcgRIa it was 0.08 µM; with FcgRIIaR, 85 µM; in the experiment with FcgRIIIaV it was 73 µM.

B2: IL6R-P687/IL6R-L (antibody)
chain 1: QVQLQESGPGLVKPSETLSLTCAVSGHSISHDHAWSWVRQPPGEGLEWIGFISYSGITNYNPSLQGRVTISRDNSKNTLYLQMNSLRAEDTAVYYCARSLARTTAMDYWGEGTLVTVSSASTKGPSVFPLAPSSKSTSGGTAALGCLVKDYFPEPVTVSWNSGALTSGVHTFPAVLQSSGLYSLSSVVTVPSSSLGTQTYICNVNHKPSNTKVDKKVEPKSCDKTHTCPPCPAPELLGGDSVFLFPPKPKDTLMISRTPEVTCVVVDVSHEDPEVKFNWYVDGVEVHNAKTKPREEQYNATYRVVSVLTVLHQDWLNGKEYKCKVNNKALPHPIEKTISKAKGQPREPQVYTLPPSRDELTKNQVSLTCLVKGFYPSDIAVEWESNGQPENNYKTTPPVLDSDGSFFLYSKLTVDKSRWQQGNVFSCSVMHEALHNHYTQKSLSLSP
chain 2: not shown
Consider B2, for which the Kd with FcgRIIaH was 130 µM; with FcgRIIb, 5.1 µM; with FcgRIa it was 0.007 µM; with FcgRIIaR it was 81 µM; with FcgRIIIaV, 42 µM.

B3: IL6R-P728/IL6R-L (antibody)
chain 1: QVQLQESGPGLVKPSETLSLTCAVSGHSISHDHAWSWVRQPPGEGLEWIGFISYSGITNYNPSLQGRVTISRDNSKNTLYLQMNSLRAEDTAVYYCARSLARTTAMDYWGEGTLVTVSSASTKGPSVFPLAPSSKSTSGGTAALGCLVKDYFPEPVTVSWNSGALTSGVHTFPAVLQSSGLYSLSSVVTVPSSSLGTQTYICNVNHKPSNTKVDKKVEPKSCDKTHTCPPCPAPELFGQDSVMLFPPKPKDTLMISRTPEVTCVVVDVSHEDPEVKFNWYVDGVEVHNAKTKPREEQENSTYRVVSVLTVLHQDWLNGKEYKCKVHNKALPAPIEKTISKAKGQPREPQVYTLPPSRDELTKNQVSLTCLVKGFYPSDIAVEWESNGQPENNYKTTPPVLDSDGSFFLYSKLTVDKSRWQQGNVFSCSVMHEALHNHYTQKSLSLSP
chain 2: not shown
Turning to B3, the Kd in the experiment with FcgRIIaH was 81 µM; with FcgRIIb, 3.9 µM; with FcgRIa, 0.58 µM; with FcgRIIaR, 74 µM; with FcgRIIIaV, 50 µM.

B4: IL6R-P735/IL6R-L (antibody)
chain 1: QVQLQESGPGLVKPSETLSLTCAVSGHSISHDHAWSWVRQPPGEGLEWIGFISYSGITNYNPSLQGRVTISRDNSKNTLYLQMNSLRAEDTAVYYCARSLARTTAMDYWGEGTLVTVSSASTKGPSVFPLAPSSKSTSGGTAALGCLVKDYFPEPVTVSWNSGALTSGVHTFPAVLQSSGLYSLSSVVTVPSSSLGTQTYICNVNHKPSNTKVDKKVEPKSCDKTHTCPPCPAPELFGQDSVMLFPPKPKDTLMISRTPEVTCVVVDVSPEDPEVKFNWYVDGVEVHNAKTKPREEQENSTYRVVSVLTVLHQDWLNGKEYKCKVSNKALPHPIEKTISKAKGQPREPQVYTLPPSRDELTKNQVSLTCLVKGFYPSDIAVEWESNGQPENNYKTTPPVLDSDGSFFLYSKLTVDKSRWQQGNVFSCSVMHEALHNHYTQKSLSLSP
chain 2: not shown
In the case of B4, the Kd with FcgRIIaH was determined as 140 µM; with FcgRIIb it was 2.3 µM; with FcgRIa, 0.26 µM; with FcgRIIaR it was 59 µM; in the experiment with FcgRIIIaV, 73 µM.

B5: IL6R-P731/IL6R-L (antibody)
chain 1: QVQLQESGPGLVKPSETLSLTCAVSGHSISHDHAWSWVRQPPGEGLEWIGFISYSGITNYNPSLQGRVTISRDNSKNTLYLQMNSLRAEDTAVYYCARSLARTTAMDYWGEGTLVTVSSASTKGPSVFPLAPSSKSTSGGTAALGCLVKDYFPEPVTVSWNSGALTSGVHTFPAVLQSSGLYSLSSVVTVPSSSLGTQTYICNVNHKPSNTKVDKKVEPKSCDKTHTCPPCPAPELLGQDSVMLFPPKPKDTLMISRTPEVTCVVVDVSPEDPEVKFNWYVDGVEVHNAKTKPREEQENSTYRVVSVLTVLHQDWLNGKEYKCKVHNKALPAPIEKTISKAKGQPREPQVYTLPPSRDELTKNQVSLTCLVKGFYPSDIAVEWESNGQPENNYKTTPPVLDSDGSFFLYSKLTVDKSRWQQGNVFSCSVMHEALHNHYTQKSLSLSP
chain 2: not shown
Consider B5, for which the Kd with FcgRIIaH was found to be 150 µM; in the experiment with FcgRIIb, 10 µM; with FcgRIa, 0.068 µM; with FcgRIIaR, 110 µM; with FcgRIIIaV it was 53 µM.

B6: IL6R-P737/IL6R-L (antibody)
chain 1: QVQLQESGPGLVKPSETLSLTCAVSGHSISHDHAWSWVRQPPGEGLEWIGFISYSGITNYNPSLQGRVTISRDNSKNTLYLQMNSLRAEDTAVYYCARSLARTTAMDYWGEGTLVTVSSASTKGPSVFPLAPSSKSTSGGTAALGCLVKDYFPEPVTVSWNSGALTSGVHTFPAVLQSSGLYSLSSVVTVPSSSLGTQTYICNVNHKPSNTKVDKKVEPKSCDKTHTCPPCPAPELLGQDSVMLFPPKPKDTLMISRTPEVTCVVVDVSPEDPEVKFNWYVDGVEVHNAKTKPREEQENSTYRVVSVLTVLHQDWLNGKEYKCKVHNKALPHPIEKTISKAKGQPREPQVYTLPPSRDELTKNQVSLTCLVKGFYPSDIAVEWESNGQPENNYKTTPPVLDSDGSFFLYSKLTVDKSRWQQGNVFSCSVMHEALHNHYTQKSLSLSP
chain 2: not shown
B6: the Kd was found to be 160 µM with FcgRIIaH; 6.4 µM with FcgRIIb; 0.17 µM with FcgRIa; 120 µM with FcgRIIaR; 68 µM with FcgRIIIaV.

B7: IL6R-P658/IL6R-L (antibody)
chain 1: QVQLQESGPGLVKPSETLSLTCAVSGHSISHDHAWSWVRQPPGEGLEWIGFISYSGITNYNPSLQGRVTISRDNSKNTLYLQMNSLRAEDTAVYYCARSLARTTAMDYWGEGTLVTVSSASTKGPSVFPLAPSSKSTSGGTAALGCLVKDYFPEPVTVSWNSGALTSGVHTFPAVLQSSGLYSLSSVVTVPSSSLGTQTYICNVNHKPSNTKVDKKVEPKSCDKTHTCPPCPAPELFGGDSVMLFPPKPKDTLMISRTPEVTCVVVDVSHEDPEVKFNWYVDGVEVHNAKTKPREEQENSTYRVVSVLTVLHQDWLNGKEYKCKVSNKALPAPIEKTISKAKGQPREPQVYTLPPSRDELTKNQVSLTCLVKGFYPSDIAVEWESNGQPENNYKTTPPVLDSDGSFFLYSKLTVDKSRWQQGNVFSCSVMHEALHNHYTQKSLSLSP
chain 2: not shown
Take B7: the Kd was found to be 96 µM with FcgRIIaH; 1.4 µM in the experiment with FcgRIIb; 0.83 µM in the experiment with FcgRIa; 33 µM with FcgRIIaR; 71 µM with FcgRIIIaV.

B8: IL6R-P605/IL6R-L (antibody)
chain 1: QVQLQESGPGLVKPSETLSLTCAVSGHSISHDHAWSWVRQPPGEGLEWIGFISYSGITNYNPSLQGRVTISRDNSKNTLYLQMNSLRAEDTAVYYCARSLARTTAMDYWGEGTLVTVSSASTKGPSVFPLAPSSKSTSGGTAALGCLVKDYFPEPVTVSWNSGALTSGVHTFPAVLQSSGLYSLSSVVTVPSSSLGTQTYICNVNHKPSNTKVDKKVEPKSCDKTHTCPPCPAPELLGGDSVFLFPPKPKDTLMISRTPEVTCVVVDVSHEDPEVKFNWYVDGVEVHNAKTKPREEQDNATYRVVSVLTVLHQDWLNGKEYKCKVSNKALPAPIEKTISKAKGQPREPQVYTLPPSRDELTKNQVSLTCLVKGFYPSDIAVEWESNGQPENNYKTTPPVLDSDGSFFLYSKLTVDKSRWQQGNVFSCSVMHEALHNHYTQKSLSLSP
chain 2: not shown
For B8, the Kd in the experiment with FcgRIIaH was found to be 130 µM; in the experiment with FcgRIIb, 5.3 µM; in the experiment with FcgRIa it was 0.0086 µM; with FcgRIIaR, 60 µM; in the experiment with FcgRIIIaV, 44 µM.

B9: IL6R-P657/IL6R-L (antibody)
chain 1: QVQLQESGPGLVKPSETLSLTCAVSGHSISHDHAWSWVRQPPGEGLEWIGFISYSGITNYNPSLQGRVTISRDNSKNTLYLQMNSLRAEDTAVYYCARSLARTTAMDYWGEGTLVTVSSASTKGPSVFPLAPSSKSTSGGTAALGCLVKDYFPEPVTVSWNSGALTSGVHTFPAVLQSSGLYSLSSVVTVPSSSLGTQTYICNVNHKPSNTKVDKKVEPKSCDKTHTCPPCPAPELLGGDSVMLFPPKPKDTLMISRTPEVTCVVVDVSHEDPEVKFNWYVDGVEVHNAKTKPREEQENSTYRVVSVLTVLHQDWLNGKEYKCKVSNKALPYPIEKTISKAKGQPREPQVYTLPPSRDELTKNQVSLTCLVKGFYPSDIAVEWESNGQPENNYKTTPPVLDSDGSFFLYSKLTVDKSRWQQGNVFSCSVMHEALHNHYTQKSLSLSP
chain 2: not shown
As to B9, the Kd in the experiment with FcgRIIaH turned out to be 110 µM; with FcgRIIb, 3.1 µM; in the experiment with FcgRIa, 0.017 µM; with FcgRIIaR it was 47 µM; in the experiment with FcgRIIIaV, 65 µM.
